{"source": "paper PMC10681709", "about": "“Molecular insight into the specific enzymatic properties of TREX1 revealing the diverse functions in processing RNA and DNA/RNA hybrids”", "binders": {"B1": {"name": "dsDNA20 (dsDNA)", "DNA 1": "ACTGGACAAATACTCCGAGG", "DNA 2": "CCTCGGAGTATTTGTCCAGT"}, "B2": {"name": "DNA/RNA hybrid 20 bp (DNA:RNA)", "DNA": "ACTGGACAAATACTCCGAGG", "RNA": "CCUCGGAGUAUUUGUCCAGU"}, "B3": {"name": "dsDNA19+RNA1 (ss19D1R/ssDNA20) (mixed)", "DNA 1": "ACTGGACAAATACTCCGAGG", "DNA 2": "CCTCGGAGTATTTGTCCAGT", "modifications": "strand 1 3'-terminal G20 is a ribonucleotide; rest DNA"}}, "key": {"[1]": {"target": "T1, mTREX1 truncated (nuclease domain) (Mus musculus, UniProt Q91XB0 1-242)", "T1 sequence": "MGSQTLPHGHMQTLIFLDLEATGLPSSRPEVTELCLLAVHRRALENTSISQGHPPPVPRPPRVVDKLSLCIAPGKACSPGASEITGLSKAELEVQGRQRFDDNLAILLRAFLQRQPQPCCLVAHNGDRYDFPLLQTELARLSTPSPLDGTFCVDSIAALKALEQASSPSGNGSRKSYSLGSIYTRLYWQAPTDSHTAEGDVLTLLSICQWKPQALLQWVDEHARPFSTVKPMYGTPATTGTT", "experiment": "fluorescence anisotropy; 20 mM EDTA; extrapolated; legend prints uM, but nM fits the stated ~500-fold drop vs ssDNA20; FA: 5 nM FAM nucleic acid, 120 mM NaCl, 20 mM Tris pH 7.0, 20 mM EDTA, room temperature, 30 min; RNase T EMSA: 120 mM NaCl, 50 mM EDTA, 20 mM buffer (truncated)", "settings": "protein: recombinant; tags: His-tag; chain copies: 2; label: 5'-FAM; single strand"}, "[2]": {"target": "T1, mTREX1 truncated (nuclease domain)", "experiment": "fluorescence anisotropy; 20 mM EDTA; not saturated, extrapolated (legend prints uM, text nM); FA: 5 nM FAM nucleic acid, 120 mM NaCl, 20 mM Tris pH 7.0, 20 mM EDTA, room temperature, 30 min; RNase T EMSA: 120 mM NaCl, 50 mM EDTA, 20 mM buffer (truncated)", "settings": "protein: recombinant; tags: His-tag; chain copies: 2; label: 5'-FAM; single strand"}, "[3]": {"target": "T1, mTREX1 truncated (nuclease domain)", "experiment": "fluorescence anisotropy; 20 mM EDTA, no Mg2+; FA: 5 nM FAM nucleic acid, 120 mM NaCl, 20 mM Tris pH 7.0, 20 mM EDTA, room temperature, 30 min; RNase T EMSA: 120 mM NaCl, 50 mM EDTA, 20 mM buffer (truncated)", "settings": "protein: recombinant, tags: His-tag, chain copies: 2"}, "[4]": {"target": "T1, mTREX1 truncated (nuclease domain)", "experiment": "fluorescence anisotropy; 20 mM EDTA; Kd stated between those of dsDNA (139.4 nM) and DNA/RNA hybrid (102.0 nM); FA: 5 nM FAM nucleic acid, 120 mM NaCl, 20 mM Tris pH 7.0, 20 mM EDTA, room temperature, 30 min; RNase T EMSA: 120 mM NaCl, 50 mM EDTA, 20 mM buffer (truncated)", "settings": "protein: recombinant; tags: His-tag; chain copies: 2; label: 5'-FAM on strand 1; blunt"}}}
{"binder": "ACTGGACAAATACTCCGAGG (mixed, 3'-terminal A18 G19 G20 are ribonucleotides; positions 1-17 DNA)", "note": "[ssDNA17+RNA3 (ss17D3R)]", "values": [{"measurement": "Kd", "setting": "[1]", "value": "~39.6", "unit": "µM"}]}
{"binder": "ACUGGACAAAUACUCCGAGG (ssRNA)", "note": "[ssRNA20]", "values": [{"measurement": "Kd", "setting": "[2]", "value": "~59", "unit": "µM"}]}
{"binder": "ACTGGACAAATACTCCGAGG (ssDNA)", "note": "[ssDNA20]", "values": [{"measurement": "Kd", "setting": "[3]; label: 5'-FAM, single strand", "value": "77.7 ± 6", "unit": "nM"}]}
{"binder": "B1", "values": [{"measurement": "Kd", "setting": "[3]; label: 5'-FAM on strand 1, blunt", "value": "139 ± 17.2", "unit": "nM"}]}
{"binder": "B2", "values": [{"measurement": "Kd", "setting": "[3]; blunt", "value": "102 ± 8", "unit": "nM"}]}
{"binder": "B3", "values": [{"measurement": "binding result", "setting": "[4]", "value": "binds"}]}
